{"source": "patent US20160229903", "key": {"[1]": {"system": "VWF-055 (VWF D′D3-Fc with 34 amino acid long little a2 linker)", "sequence (chain, as listed by the source)": "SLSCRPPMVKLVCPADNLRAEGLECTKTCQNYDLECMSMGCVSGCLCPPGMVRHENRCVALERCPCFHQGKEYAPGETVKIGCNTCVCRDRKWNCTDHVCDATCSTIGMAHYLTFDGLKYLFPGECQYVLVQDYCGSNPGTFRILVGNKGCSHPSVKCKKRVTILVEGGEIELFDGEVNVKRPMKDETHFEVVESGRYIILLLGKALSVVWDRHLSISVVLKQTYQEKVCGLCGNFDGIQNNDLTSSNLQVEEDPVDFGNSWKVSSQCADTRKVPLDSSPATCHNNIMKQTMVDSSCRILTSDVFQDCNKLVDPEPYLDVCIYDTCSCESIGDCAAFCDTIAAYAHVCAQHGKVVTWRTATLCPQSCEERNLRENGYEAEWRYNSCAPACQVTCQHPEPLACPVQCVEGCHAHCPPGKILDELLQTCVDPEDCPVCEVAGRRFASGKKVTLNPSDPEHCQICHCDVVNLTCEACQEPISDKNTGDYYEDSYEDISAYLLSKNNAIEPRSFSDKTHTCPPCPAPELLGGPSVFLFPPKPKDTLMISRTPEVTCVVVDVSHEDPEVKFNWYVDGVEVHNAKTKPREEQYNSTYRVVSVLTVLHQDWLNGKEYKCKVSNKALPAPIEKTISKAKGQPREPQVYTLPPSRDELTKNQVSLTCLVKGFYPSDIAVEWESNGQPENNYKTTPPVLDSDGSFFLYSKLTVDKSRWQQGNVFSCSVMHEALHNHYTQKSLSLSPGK"}, "[2]": {"system": "VWF-052 (VWF D′D3-Fc with non-cleavable 48 amino acid long GS linker)", "sequence (chain, as listed by the source)": "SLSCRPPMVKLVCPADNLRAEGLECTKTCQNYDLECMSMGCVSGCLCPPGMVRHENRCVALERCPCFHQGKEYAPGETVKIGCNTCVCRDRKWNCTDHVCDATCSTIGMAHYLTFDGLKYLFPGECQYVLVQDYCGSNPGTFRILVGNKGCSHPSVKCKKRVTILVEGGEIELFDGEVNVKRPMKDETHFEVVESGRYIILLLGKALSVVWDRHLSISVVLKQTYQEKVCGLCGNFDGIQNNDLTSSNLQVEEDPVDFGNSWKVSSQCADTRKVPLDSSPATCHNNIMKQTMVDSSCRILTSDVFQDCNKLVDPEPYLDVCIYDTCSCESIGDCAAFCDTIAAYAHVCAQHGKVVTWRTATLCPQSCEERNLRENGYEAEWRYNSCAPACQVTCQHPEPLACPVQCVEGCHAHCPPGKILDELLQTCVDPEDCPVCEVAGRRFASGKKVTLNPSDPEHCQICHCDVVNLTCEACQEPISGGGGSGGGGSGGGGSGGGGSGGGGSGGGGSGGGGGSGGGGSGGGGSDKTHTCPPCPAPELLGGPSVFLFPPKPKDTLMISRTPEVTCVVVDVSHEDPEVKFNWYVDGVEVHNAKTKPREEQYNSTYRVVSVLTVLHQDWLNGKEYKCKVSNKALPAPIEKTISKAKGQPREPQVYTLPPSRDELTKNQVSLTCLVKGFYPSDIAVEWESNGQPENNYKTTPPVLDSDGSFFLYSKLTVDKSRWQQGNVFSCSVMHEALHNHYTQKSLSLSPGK"}}, "data": [{"substance": "human alpha-thrombin", "values": [{"measurement": "thrombin cleavage (Biacore, release of D′D3 from captured construct)", "setting": "[1]", "value": "displayed similar thrombin cleavage as VWF-039 construct"}, {"measurement": "thrombin cleavage (Biacore, release of D′D3 from captured construct)", "setting": "[2]", "value": "as expected is not cleaved by thrombin"}]}]}
